From US20190309060A1 (PHILOGEN S P A, published 2019)
Values belong to the binder of their own block, whether it stands above or below them.

How the values were obtained:
[1] = molecular target: T1, human galectin-2, natively expressed (LS174T cells; human colon biopsy sections) (human, UniProt P05162 1-132); assay: immunofluorescence of frozen healthy colon sections, biotinylated IgG, streptavidin-alexa 488
T1 construct: Cytoplasmic protein in fixed, methanol-permeabilized LS174T cells, and native protein in frozen colon sections; also called natively expressed galectin-2 antigen
T1 sequence: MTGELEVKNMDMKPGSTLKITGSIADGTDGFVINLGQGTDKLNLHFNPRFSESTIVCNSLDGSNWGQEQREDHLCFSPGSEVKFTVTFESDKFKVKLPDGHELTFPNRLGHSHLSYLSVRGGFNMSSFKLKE
Method: (§1) Detection of the primary antibody was performed with streptavidin-alexa 488 (Invitrogen). Blood vessels were detected using a mouse anti-human CD31 antibody (eBioscience) followed by detection with an anti-mouse alexa 594 antibody (Invitrogen). Counterstaining for cell nuclei was performed with DAPI (eBioscience).
(§2) (i) Freshly frozen colon biopsy samples from a healthy donor were stained according to already published methods (Pfaffen et al., Eur J Nucl Med Mol Imagin (2010) 37: 1559-65). Briefly, purified biotinylated antibodies in IgG format were added at the final concentration of 2 μg/ml onto the sections. Detection of the primary antibody was performed with streptavidin-alexa 488 (Invitrogen). Blood vessels were detected using a mouse anti-human CD31 antibody (eBioscience) followed by detection with an anti-mouse alexa 594 antibody (Invitrogen). Counterstaining for cell nuclei was performed with DAPI (eBioscience).
as §2, with “(ii)” for “(i)”, “Detection of the primary antibody was performed with streptavidin-alexa 488 (Invitrogen).” left out, “Counterstaining for cell nuclei was performed with DAPI (eBioscience).” left out

[2] = molecular target: T2, human cadherin-17, native, in human ulcerative colitis biopsy sections (human, UniProt Q12864 23-832); assay: immunofluorescence of frozen human ulcerative colitis sections, human IgG1 format, rabbit anti-human IgG and goat anti-rabbit Alexa 488
T2 construct: Native protein in tissue; also called cognate antigen (of AV17)
T2 sequence: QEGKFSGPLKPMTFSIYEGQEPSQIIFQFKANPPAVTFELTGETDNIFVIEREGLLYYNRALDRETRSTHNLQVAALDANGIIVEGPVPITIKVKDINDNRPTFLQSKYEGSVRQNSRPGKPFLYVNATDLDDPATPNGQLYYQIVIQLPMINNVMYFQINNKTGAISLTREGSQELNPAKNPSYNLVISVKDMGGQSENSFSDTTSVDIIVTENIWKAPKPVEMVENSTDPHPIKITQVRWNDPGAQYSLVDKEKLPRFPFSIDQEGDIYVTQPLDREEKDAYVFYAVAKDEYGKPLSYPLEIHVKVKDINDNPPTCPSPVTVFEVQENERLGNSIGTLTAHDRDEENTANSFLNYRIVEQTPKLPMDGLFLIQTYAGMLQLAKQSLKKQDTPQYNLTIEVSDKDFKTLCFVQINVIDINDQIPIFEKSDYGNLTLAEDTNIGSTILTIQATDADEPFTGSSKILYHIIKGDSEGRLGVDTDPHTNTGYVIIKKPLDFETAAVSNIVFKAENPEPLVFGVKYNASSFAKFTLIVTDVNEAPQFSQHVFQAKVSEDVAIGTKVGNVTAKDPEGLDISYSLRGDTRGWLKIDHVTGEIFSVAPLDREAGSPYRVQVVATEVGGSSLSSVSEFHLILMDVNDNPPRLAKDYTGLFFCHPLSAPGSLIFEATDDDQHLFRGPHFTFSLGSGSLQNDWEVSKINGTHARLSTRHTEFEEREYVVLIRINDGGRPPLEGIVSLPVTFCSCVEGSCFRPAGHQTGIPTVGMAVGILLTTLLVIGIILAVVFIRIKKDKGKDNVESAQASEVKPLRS
Method: Purified antibodies in human IgG1 format were added at the final concentration of 2 μg/ml to the sections. […] A positive control was performed by counterstaining for cell nuclei was performed with DAPI (eBioscience). Sections were mounted with fluorescent mounting medium (DAKO) followed by analysis using an Axioskop2 microscope with a 10× objective (Carl Zeiss AG, Jena, Germany). A stronger intensity signal in the colonic crypts region can be detected in the sections stained with CPR02, AV17 and FF06 when compared to the signal observed with an irrelevant antibody (Negative Control).
Freshly frozen human biopsy samples of Ulcerative Colitis were stained as described in the following lines. In brief, purified antibodies in human IgG1 format were added at the final concentration of 2 μg/ml to the sections. […] Further positive control was performed by counterstaining for cell nuclei was performed with DAPI (eBioscience). Sections were mounted with fluorescent mounting medium (DAKO) followed by analysis using an Axioskop2 microscope with a 10× objective (Carl Zeiss AG, Jena, Germany).

[3] = molecular target: T3, human Agr2, native, in human colon biopsy sections (human, UniProt O95994 21-175); assay: immunofluorescence of frozen healthy colon sections, biotinylated IgG, streptavidin-alexa 488
T3 construct: Native protein in healthy-donor colon and ulcerative colitis sections; also called human Agr2 antigen
T3 sequence: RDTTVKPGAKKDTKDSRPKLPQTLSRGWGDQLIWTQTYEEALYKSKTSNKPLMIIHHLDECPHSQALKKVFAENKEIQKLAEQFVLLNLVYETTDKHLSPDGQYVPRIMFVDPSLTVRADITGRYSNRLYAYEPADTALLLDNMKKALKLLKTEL
Method: as §1, §2
as §2, with “(ii)” for “(i)”, “Detection of the primary antibody was performed with streptavidin-alexa 488 (Invitrogen).” left out, “Counterstaining for cell nuclei was performed with DAPI (eBioscience).” left out

- binding result [1]: binds
B1: FF06 in IgG format (antibody, V domains shown)
VH: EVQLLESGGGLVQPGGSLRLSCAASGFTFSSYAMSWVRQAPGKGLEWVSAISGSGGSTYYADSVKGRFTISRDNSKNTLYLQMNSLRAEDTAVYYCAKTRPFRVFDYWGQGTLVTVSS
VL: SSELTQDPAVSVALGQTVRITCQGDSLRSYYASWYQQKPGQAPVLVIYGKNNRPSGIPDRFSGSSSGNTASLTITGAQAEDEADYYCNSSRSRRPAVVFGGGTKLTVLG
notes: also called anti-Galectin-2 (FF06)

B2: AV17 in human IgG1 format (antibody, V domains shown)
VH: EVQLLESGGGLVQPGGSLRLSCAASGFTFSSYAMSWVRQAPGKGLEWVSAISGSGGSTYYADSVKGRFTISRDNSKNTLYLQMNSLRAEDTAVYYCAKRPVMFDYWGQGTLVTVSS
VL: SSELTQDPAVSVALGQTVRITCQGDSLRSYYASWYQQKPGQAPVLVIYGKNNRPSGIPDRFSGSSSGNTASLTITGAQAEDEADYYCNSSLPSPQVVVFGGGTKLTVLG
notes: Human IgG1 format; also called anti-cadherin 17 (AV17)
- binding result [2]: binds

- binding result [3]: binds
B3: CPR02 in IgG format (antibody, V domains shown)
VH: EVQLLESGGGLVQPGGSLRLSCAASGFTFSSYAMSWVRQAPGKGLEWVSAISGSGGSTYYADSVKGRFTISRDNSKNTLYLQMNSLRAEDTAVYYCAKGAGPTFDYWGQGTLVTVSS
VL: SSELTQDPAVSVALGQTVRITCQGDSLRSYYASWYQQKPGQAPVLVIYGKNNRPSGIPDRFSGSSSGNTASLTITGAQAEDEADYYCNSSPPTRAVVVFGGGTKLTVLG
notes: also called anti-Agr2 (CPR02)
